Reference: US8088617B2, “Antibodies that bind the glutamate ligand binding region of Notch1” (OncoMed Pharmaceuticals, Inc., priority 2007, dated 2012)
Entries after “also recorded” stand apart in the source; their conditions may differ.

B1: 90R21: affinity matured anti-Notch1 ligand binding domain antibody; heavy chain SEQ ID NO: 1, light chain SEQ ID NO: 5; ATCC PTA-8909 (antibody)
heavy: MKHLWFFLLLVAAPRWVLSEVQLLESGGGLVQPGGSLRLSCAASGFTFSNYGMSWVRQAPGKGLEWVSSISGYGSNTYYADSVKGRFTISRDNSKNTLYLQMNSLRAEDTAVYYCARISQQAVWGQGTLVTVSSASTKGPSVFPLAPCSRSTSESTAALGCLVKDYFPEPVTVSWNSGALTSGVHTFPAVLQSSGLYSLSSVVTVPSSNFGTQTYTCNVDHKPSNTKVDKTVERKCCVECPPCPAPPVAGPSVFLFPPKPKDTLMISRTPEVTCVVVDVSHEDPEVQFNWYVDGVEVHNAKTKPREEQFNSTFRVVSVLTVVHQDWLNGKEYKCKVSNKGLPAPIEKTISKTKGQPREPQVYTLPPSREEMTKNQVSLTCLVKGFYPSDIAVEWESNGQPENNYKTTPPMLDSDGSFFLYSKLTVDKSRWQQGNVFSCSVMHEALHNHYTQKSLSLSPGK
light: MAWALLLLTLLTQGTGSWAQSALTQPASVSGSPGQSITISCTGTSSDIGGYQYVSWYQQHPGKAPKLMIYYVSNRPSGVSNRFSGSKSGNTASLTISGLQAEDEADYYCQSADSSSWVFGGGTKLTVLGQPKAAPSVTLFPPSSEELQANKATLVCLISDFYPGAVTVAWKADSSPVKAGVETTTPSKQSNNKYAASSYLSLTPEQWKSHRSYSCQVTHEGSTVEKTVAPTECS
modifications: Synthetic 90R21 Heavy chain; Synthetic 90R21 Light chain
B2: 122R5: lead anti-Notch3 fAb; heavy chain SEQ ID NO: 9, light chain SEQ ID NO: 13; ATCC PTA-8908 (antibody)
heavy: MKHLWFFLLLVAAPRWVLSQVQLVESGGGLVQPGGSLRLSCAASGFTFSDNAIHWVRQAPGKGLEWVSAISSYGSGTYYADSVKGRFTISRDNSKNTLYLQMNSLRAEDTAVYYCARPGFQFSFTFMDIWGQGTLVTVSSASTKGPSVFPLAPCSRSTSESTAALGCLVKDYFPEPVTVSWNSGALTSGVHTFPAVLQSSGLYSLSSVVTVPSSNFGTQTYTCNVDHKPSNTKVDKTVERKCCVECPPCPAPPVAGPSVFLFPPKPKDTLMISRTPEVTCVVVDVSHEDPEVQFNWYVDGVEVHNAKTKPREEQFNSTFRVVSVLTVVHQDWLNGKEYKCKVSNKGLPAPIEKTISKTKGQPREPQVYTLPPSREEMTKNQVSLTCLVKGFYPSDIAVEWESNGQPENNYKTTPPMLDSDGSFFLYSKLTVDKSRWQQGNVFSCSVMHEALHNHYTQKSLSLSPGK
light: MAWALLLLTLLTQGTGSWADIELTQPPSVSVAPGQTARISCSGDALGSKYASWYQQKPGQAPVLVIYDDKNRPSGIPERFSGSNSGNTATLTISGTQAEDEADYYCQSWDGKSKVVFGGGTKLTVLGQPKAAPSVTLFPPSSEELQANKATLVCLISDFYPGAVTVAWKADSSPVKAGVETTTPSKQSNNKYAASSYLSLTPEQWKSHRSYSCQVTHEGSTVEKTVAPTECS
modifications: Synthetic 122R5 Heavy chain; Synthetic 122R5 Light chain

What was measured:
[1] = system: Notch signaling (ICD formation) in Hela cells stably expressing Notch1; assay: Western blot of Notch ICD formation in response to DLL4; format: cell-based; conditions: 10 ug/ml soluble DLL4-Fc; western blot of cell lysates
Excerpt: FIG. 8: Monoclonal Antibodies to the Notch Ligand Binding Domain Inhibit Notch Signaling. A) A schematic of the Notch signaling mechanism. Upon ligand binding, gamma secretase activity cleaves the Notch receptor and liberates the intracellular domain (ICD) to activate downstream Notch signaling. B) Monoclonal antibodies against the Notch ligand binding domain inhibit Notch signaling in response to Notch ligand DLL4.
In certain embodiments, the ability of antibodies against a Notch ligand binding region to block Notch signaling was measured by inhibition of Notch cleavage in response to ligand stimulation. Hela cells stably expressing Notch1 were cultured in DMEM supplemented with antibiotics and 10% FCS. Cells were then incubated in the presence of 10 ug/ml soluble DLL4-Fc protein in the presence or absence of monoclonal antibodies against a Notch ligand binding domain, control antibodies, antibodies against Notch1 binding outside the ligand binding region (13M57), and gamma secretase inhibitor DBZ. Cells were harvested and cell lysates analyzed by western blot using an antibody that recognizes the cleaved intracellular domain (ICD) of Notch generated in response to ligand induced signaling (FIG. 8A).

human Notch1 = target: T1, human Notch1 (Homo sapiens, UniProt P46531); assay: FACS: inhibition of DLL4 binding to Notch1 on stably transfected HEK293 cells; conditions: soluble DLL4-fc, increasing concentrations of antibody
T1 construct: expressed in transfected cells
Method: FIG. 6: Affinity Matured mAbs that Bind the Ligand Binding Domain of Notch1 Inhibit Binding of DLL4 to Notch1. […] Three affinity matured variants were tested for their ability to block binding between DLL4 and Notch1 (y-axis) in the presence of increasing concentrations of antibody (x-axis).
The ability of antibodies specific for the critical ligand binding region to inhibit binding of Notch ligands to Notch was evaluated. In certain embodiments, the ability of a panel of affinity matured monoclonal antibodies specific for the Notch1 ligand binding region to inhibit binding of DLL4 to Notch1 was determined by FACS analysis (FIG. 6). HEK293 cells stably transfected with human Notch1 were incubated with soluble DLL4-fc fusion protein in the presence of increasing concentrations of 90R21, 90R22, and 90R29 antibodies. […] HEK293 cells co-transfected with GFP and full length Notch3 were incubated with a soluble human Jag1-fc fusion protein in the absence (No Ab) or presence (122R03E1) of the fAb.

PE13 breast tumor cells = assay: PE13 breast tumor xenograft growth; format: in vivo, NOD/SCID mice
Method: (§1) FIG. 9: Monoclonal Antibodies to the Notch Ligand Binding Domain Inhibit Tumor Growth In Vivo. NOD/SCID mice were injected with dissociated PE13 (A) or T3 (B) breast tumor cells and treated with either control antibodies (black squares); anti-Notch ligand binding region antibodies 90R21 (open circles); control antibodies in combination with Paclitaxel (black triangles); or 90R21 antibodies in combination with Paclitaxel (open triangles).
(§2) In certain embodiments, tumor cells from a patient sample (solid tumor biopsy or pleural effusion) that have been passaged as a xenograft in mice were prepared for repassaging into experimental animals. Tumor tissue was removed under sterile conditions, cut up into small pieces, minced completely using sterile blades, and single cell suspensions obtained by enzymatic digestion and mechanical disruption. Specifically, pleural effusion cells or the resulting tumor pieces were mixed with ultra-pure collagenase III in culture medium (200-250 units of collagenase per mL) and incubated at 37° C. for 3-4 hours with pipetting up and down through a 10-mL pipette every 15-20 minutes. Digested cells were filtered through a […] nylon mesh, washed with RPMI/20% FBS, and washed twice with HBSS. […]
(§3) In certain embodiments, anti-Notch ligand binding region antibodies were analyzed for their ability to reduce the growth of breast tumors in vivo. […]

T3 breast tumor cells = assay: T3 breast tumor xenograft growth; format: in vivo, NOD/SCID mice; conditions: estrogen pellet
Method: as §1, §2, §3

murine Notch3 = murine Notch3 (Mus musculus, UniProt Q61982); assay: fAb binding to murine Notch3 (phage display selection)
Method: (§4) In certain embodiments, phage display identified a specific fAb that binds to the ligand binding domain within Notch1. In certain embodiments, phage display identified a specific fAb that binds to the ligand binding domain within Notch3. In certain embodiments, a fAb was discovered that bound to the ligand binding domain of both Notch3 and Notch1. In certain embodiments, 2×10^13 Fab displaying phage particles from a human fAb phage library were incubated with cells expressing full length recombinant protein or passively immobilized recombinant protein fragments, non-specific phage were washed off, and then specific phage were eluted with either low pH (cells) or DTT (recombinant protein). The eluted output was used to infect TG1 F+ bacteria, rescued with helper phage, and then Fab display induced with IPTG (0.25 mM). The output of this rescued round one served as the starting point for further selections in rounds two, three, four, and five as indicated in Table 1.
(§5) For Notch3, the phage display library was panned for binding to the analogous epitope within Notch3 (comprising amino acid 403 of Notch3) using similar approach for as Notch1. […] The 122R5 heavy chain comprises the amino acids of SEQ ID NO: 9, including CDR1 (SEQ ID NO: 10); CDR2 (SEQ ID NO: 11) and CDR3 (SEQ ID NO: 12). […]

[2] = target: T2, wild type full length Notch1 (Homo sapiens, UniProt P46531); assay: FACS binding to HEK293 cells co-transfected with GFP and wild type Notch1; conditions: HEK293 cells co-transfected with GFP
T2 construct: co-transfected with GFP and either wild type full length Notch1; expressed in transfected cells; host or cells: HEK293
Excerpt: (§6) FIG. 4: Identification of a fAb that Binds a Critical Ligand Binding Domain of Notch1. FACS analysis of HEK 293 cells co-transfected with GFP and either wild type Notch or Notch1 E424Q using a human fAb identified by phage display as binding the ligand binding domain of Notch1. GFP expression marked cells expressing recombinant Notch1 protein (x-axis) and binding to Notch1 is indicated along the y-axis.
(§7) FIG. 5: Identification of an Antibody that Binds the Ligand Binding Region of Multiple Notch Receptors. FACS analysis of HEK 293 cells co-transfected with GFP and wild type Notch3, Notch1 or Notch1 E424Q using a human fAb identified by phage display as binding the ligand binding domain of Notch3. GFP expression marked transfected cells expressing recombinant Notch protein (x-axis). Binding of fAb is indicated on the y-axis.
(§8) To confirm that the lead Notch1 fAb was specific for the ligand binding region of Notch1, HEK293 cells were co-transfected with GFP and either wild type full length Notch1 or Notch1 containing the amino acid substitution E424Q.

Notch1 E424Q = target: T3, Notch1 E424Q (Homo sapiens, UniProt P46531, E424Q); assay: FACS binding to HEK293 cells co-transfected with GFP and Notch1 E424Q; conditions: HEK293 cells co-transfected with GFP
T3 construct: Full-length wild type Notch1 or Notch1 E424Q was co-transfected with GFP into HEK 293 cells; expressed in transfected cells; host or cells: HEK293
Excerpt: as §6, §7, §8

Notch3 (E403Q) = Notch3 (E403Q) (Homo sapiens, UniProt Q9UM47, E403Q); assay: fAb binding to Notch3 with E403Q substitution
Excerpt: For Notch3, the phage display library was panned for binding to the analogous epitope within Notch3 (comprising amino acid 403 of Notch3) using similar approach for as Notch1. […] The 122R5 heavy chain comprises the amino acids of SEQ ID NO: 9, including CDR1 (SEQ ID NO: 10); CDR2 (SEQ ID NO: 11) and CDR3 (SEQ ID NO: 12). The 122R5 light chain comprises the amino acids of SEQ ID NO: 13, including CDR1 (SEQ ID NO: 14); CDR2 (SEQ ID NO: 15) and CDR3 (SEQ ID NO: 16).

human Notch3 = human Notch3 (Homo sapiens, UniProt Q9UM47); assay: fAb binding to human Notch3 (phage display selection)
Method: as §4, §5

[3] = antibody 10 mg/kg twice a week in combination with Paclitaxel 10 mg/kg once a week
[4] = antibody alone 10 mg/kg twice a week, vs control antibody, after 55 days

T1 sequence (P46531 19-2555): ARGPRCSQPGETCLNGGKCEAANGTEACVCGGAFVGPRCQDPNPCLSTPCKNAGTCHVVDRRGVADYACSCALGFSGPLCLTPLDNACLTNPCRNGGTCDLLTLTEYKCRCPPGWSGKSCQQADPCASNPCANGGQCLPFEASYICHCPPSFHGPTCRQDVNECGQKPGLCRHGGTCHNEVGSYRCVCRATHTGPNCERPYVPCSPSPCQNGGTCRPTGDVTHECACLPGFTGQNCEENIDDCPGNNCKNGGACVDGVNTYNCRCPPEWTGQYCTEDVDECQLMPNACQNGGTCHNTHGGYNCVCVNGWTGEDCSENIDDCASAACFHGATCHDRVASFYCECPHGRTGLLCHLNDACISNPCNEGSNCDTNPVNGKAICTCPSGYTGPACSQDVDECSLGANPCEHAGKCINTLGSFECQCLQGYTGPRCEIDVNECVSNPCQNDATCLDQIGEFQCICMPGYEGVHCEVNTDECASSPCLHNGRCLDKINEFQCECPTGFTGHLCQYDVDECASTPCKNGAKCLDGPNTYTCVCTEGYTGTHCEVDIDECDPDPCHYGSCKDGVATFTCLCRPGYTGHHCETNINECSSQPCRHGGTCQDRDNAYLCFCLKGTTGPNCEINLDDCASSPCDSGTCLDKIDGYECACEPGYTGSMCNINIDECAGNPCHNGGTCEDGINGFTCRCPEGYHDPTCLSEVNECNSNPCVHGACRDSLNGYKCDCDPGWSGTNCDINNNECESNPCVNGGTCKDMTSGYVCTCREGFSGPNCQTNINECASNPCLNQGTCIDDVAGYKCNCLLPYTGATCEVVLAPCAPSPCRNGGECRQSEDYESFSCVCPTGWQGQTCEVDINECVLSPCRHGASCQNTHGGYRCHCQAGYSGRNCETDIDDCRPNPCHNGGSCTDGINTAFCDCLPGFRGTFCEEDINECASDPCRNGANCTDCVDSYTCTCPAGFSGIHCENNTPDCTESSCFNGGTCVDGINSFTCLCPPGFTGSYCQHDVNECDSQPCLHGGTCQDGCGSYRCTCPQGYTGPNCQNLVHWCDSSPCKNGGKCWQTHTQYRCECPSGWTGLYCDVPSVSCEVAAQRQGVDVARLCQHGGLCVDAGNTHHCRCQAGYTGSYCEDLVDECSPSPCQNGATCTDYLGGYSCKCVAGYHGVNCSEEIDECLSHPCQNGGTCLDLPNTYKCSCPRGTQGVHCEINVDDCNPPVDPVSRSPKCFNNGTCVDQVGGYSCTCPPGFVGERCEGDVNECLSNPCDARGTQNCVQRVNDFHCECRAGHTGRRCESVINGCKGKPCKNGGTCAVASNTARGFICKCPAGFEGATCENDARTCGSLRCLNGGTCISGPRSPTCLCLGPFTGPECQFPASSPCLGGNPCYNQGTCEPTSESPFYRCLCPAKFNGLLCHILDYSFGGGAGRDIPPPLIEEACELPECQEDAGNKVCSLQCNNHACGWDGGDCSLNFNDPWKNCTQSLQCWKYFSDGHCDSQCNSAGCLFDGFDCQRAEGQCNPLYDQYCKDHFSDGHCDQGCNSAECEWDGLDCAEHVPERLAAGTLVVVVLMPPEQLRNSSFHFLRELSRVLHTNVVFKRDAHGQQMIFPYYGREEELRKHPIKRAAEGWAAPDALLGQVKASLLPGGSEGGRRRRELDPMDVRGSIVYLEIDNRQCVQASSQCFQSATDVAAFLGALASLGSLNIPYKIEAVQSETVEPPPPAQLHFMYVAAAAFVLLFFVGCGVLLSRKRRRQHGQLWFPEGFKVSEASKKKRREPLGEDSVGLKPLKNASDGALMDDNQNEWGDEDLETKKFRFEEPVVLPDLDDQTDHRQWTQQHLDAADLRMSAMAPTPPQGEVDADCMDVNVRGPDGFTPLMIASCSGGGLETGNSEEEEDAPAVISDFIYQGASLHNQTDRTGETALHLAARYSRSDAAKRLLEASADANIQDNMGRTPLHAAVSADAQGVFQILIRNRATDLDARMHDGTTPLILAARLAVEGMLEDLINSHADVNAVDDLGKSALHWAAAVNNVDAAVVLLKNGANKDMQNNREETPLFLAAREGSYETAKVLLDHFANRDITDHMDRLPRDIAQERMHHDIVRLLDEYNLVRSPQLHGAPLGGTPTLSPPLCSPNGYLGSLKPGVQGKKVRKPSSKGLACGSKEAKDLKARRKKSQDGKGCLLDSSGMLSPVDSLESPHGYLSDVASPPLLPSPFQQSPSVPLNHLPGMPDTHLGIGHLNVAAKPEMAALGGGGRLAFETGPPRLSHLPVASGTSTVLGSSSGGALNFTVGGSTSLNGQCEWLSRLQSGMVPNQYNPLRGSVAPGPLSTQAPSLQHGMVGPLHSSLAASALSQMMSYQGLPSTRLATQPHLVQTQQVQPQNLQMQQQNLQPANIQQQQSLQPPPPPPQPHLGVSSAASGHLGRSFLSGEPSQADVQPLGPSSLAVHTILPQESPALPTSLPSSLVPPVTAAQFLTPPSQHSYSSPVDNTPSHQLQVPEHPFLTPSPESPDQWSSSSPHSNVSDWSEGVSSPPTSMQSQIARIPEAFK
Sequence of Notch3 (E403Q) (Q9UM47 40-2321 E403Q): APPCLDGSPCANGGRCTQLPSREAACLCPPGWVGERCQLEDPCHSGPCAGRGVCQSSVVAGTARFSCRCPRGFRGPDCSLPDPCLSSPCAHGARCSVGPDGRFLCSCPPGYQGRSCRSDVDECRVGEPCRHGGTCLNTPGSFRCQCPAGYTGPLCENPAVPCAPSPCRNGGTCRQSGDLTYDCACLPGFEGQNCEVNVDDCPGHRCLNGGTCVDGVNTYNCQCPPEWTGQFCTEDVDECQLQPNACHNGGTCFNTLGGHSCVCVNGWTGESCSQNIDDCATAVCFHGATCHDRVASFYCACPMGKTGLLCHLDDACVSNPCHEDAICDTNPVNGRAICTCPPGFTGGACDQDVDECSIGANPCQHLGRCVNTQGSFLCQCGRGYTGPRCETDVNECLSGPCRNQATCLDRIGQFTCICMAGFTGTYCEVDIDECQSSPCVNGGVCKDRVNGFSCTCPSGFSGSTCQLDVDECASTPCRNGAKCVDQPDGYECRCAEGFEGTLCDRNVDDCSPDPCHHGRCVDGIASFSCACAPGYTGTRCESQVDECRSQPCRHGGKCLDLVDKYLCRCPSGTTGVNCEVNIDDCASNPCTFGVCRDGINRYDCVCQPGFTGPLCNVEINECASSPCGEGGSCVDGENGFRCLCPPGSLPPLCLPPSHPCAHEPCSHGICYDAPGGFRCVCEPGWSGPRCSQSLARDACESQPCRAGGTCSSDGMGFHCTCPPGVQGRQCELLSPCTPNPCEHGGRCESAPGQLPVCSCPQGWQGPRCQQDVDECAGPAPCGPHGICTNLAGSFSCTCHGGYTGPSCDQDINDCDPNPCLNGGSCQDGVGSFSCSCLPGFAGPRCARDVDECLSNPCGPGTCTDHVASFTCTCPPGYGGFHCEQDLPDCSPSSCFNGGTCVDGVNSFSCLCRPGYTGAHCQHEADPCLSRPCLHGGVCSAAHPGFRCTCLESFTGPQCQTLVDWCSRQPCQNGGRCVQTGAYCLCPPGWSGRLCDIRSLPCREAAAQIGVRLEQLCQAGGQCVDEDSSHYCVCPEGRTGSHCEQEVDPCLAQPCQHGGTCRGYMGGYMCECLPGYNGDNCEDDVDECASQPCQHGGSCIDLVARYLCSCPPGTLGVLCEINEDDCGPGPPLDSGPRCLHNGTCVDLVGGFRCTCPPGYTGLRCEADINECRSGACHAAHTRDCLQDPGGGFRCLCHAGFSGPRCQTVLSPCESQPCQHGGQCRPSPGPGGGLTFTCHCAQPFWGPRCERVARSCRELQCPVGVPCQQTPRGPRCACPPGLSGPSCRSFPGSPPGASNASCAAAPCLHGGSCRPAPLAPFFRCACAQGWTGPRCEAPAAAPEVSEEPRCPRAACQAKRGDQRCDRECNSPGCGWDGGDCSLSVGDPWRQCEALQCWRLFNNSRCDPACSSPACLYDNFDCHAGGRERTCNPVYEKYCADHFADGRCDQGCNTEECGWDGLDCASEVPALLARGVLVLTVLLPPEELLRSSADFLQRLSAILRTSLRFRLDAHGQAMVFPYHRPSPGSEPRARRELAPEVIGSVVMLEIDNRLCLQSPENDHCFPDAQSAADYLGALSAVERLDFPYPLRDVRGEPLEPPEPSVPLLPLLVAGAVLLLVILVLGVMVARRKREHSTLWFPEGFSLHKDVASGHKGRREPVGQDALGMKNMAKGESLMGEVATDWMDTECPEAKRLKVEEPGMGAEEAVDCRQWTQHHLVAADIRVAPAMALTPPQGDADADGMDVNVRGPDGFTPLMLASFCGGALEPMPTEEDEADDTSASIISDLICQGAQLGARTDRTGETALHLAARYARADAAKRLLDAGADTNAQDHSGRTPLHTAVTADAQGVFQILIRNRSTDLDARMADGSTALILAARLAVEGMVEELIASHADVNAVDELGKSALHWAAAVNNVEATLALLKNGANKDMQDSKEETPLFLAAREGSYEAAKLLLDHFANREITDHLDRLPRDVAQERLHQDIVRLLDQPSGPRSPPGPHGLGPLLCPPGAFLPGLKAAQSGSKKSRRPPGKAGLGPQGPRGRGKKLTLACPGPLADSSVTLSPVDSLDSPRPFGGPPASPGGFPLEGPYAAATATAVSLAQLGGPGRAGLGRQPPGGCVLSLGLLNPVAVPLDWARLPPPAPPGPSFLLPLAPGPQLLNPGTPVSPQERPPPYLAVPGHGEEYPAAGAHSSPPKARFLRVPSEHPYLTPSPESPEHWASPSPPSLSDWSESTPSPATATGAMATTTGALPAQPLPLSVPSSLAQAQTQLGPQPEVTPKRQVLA
T2 sequence (P46531 19-2555): as the sequence (P46531 19-2555) above
Sequence of human Notch3 (Q9UM47 40-2321): as the sequence (Q9UM47 40-2321 E403Q) above, with Q364E counted along it

| Molecule | formation of Notch ICD in response to DLL4 [1] | blocking of binding between DLL4 and Notch1 (human Notch1) | tumor growth, PE13, combination (PE13 breast tumor cells; [3]) | tumor growth, PE13 (PE13 breast tumor cells; [4]) | tumor growth, T3, combination (T3 breast tumor cells; [3]) | tumor growth, T3 (T3 breast tumor cells; [4]) | binding to murine Notch3 (murine Notch3) | binding to cells expressing wild type Notch1 [2] | binding to cells expressing Notch1 E424Q (Notch1 E424Q) | binding to Notch3 (E403Q) (Notch3 (E403Q)) | binding to human Notch3 (human Notch3) |
| --- | --- | --- | --- | --- | --- | --- | --- | --- | --- | --- | --- |
| C[C@H](NC(=O)Cc1cc(F)cc(F)c1)C(=O)N[C@@H]1C(=O)N(C)c2ccccc2-c2ccccc21 [DBZ, reference compound] | prevented formation of Notch ICD; also recorded: blocked this signaling event |  |  |  |  |  |  |  |  |  |  |
| B1 | prevented formation of Notch ICD; also recorded: inhibited ICD formation | blocked the binding; also recorded: disrupted ligand binding | virtually eliminated tumor growth | significantly reduced tumor growth; also recorded: reduced tumor growth significantly | virtually eliminated T3 tumor growth | significantly reduced tumor growth; also recorded: reduced tumor growth significantly |  |  |  |  |  |
| B2 |  |  |  |  |  |  | bound | ability to bind to Notch1 | not to Notch1(E424Q) | not Notch3 (E403Q) | bound |
